In patent publication US20090215686A1 one finds concentration data, which are given here for two substances.

In this test the target is Met on MDCK (Madin-Darby canine kidney) cells (canine) (UniProt Q75ZY9). Description: cell-based or functional assay.

For “NK1 version of the receptor-binding mutant K1N (E159A:S161A:E195A:R197A:Y198A) (from UniProt P14210 28-209) (ligand)”, the concentration at which agonistic activity is seen (MDCK colony scatter) is 100 nM.

The substance “NK1 version of the receptor-binding mutant K1M (E195A:R197A:Y198A) (from UniProt P14210 28-209) (ligand)” showed a concentration at which agonistic activity is seen (MDCK colony scatter) of more than 10 nM.
